Here are results for ten molecules from patent publication US20240301031A1 (JIANGSU HENGRUI PHARMACEUTICALS, published 2024).

The target in assay [1] is T1, human BAFF (10056-HNCH, Sino biological) (human, UniProt Q9Y275 134-285).
T1 construct: Bought protein
Briefly: ELISA, BAFF coated, fusion protein titrated. The procedure:
(§1) The binding activity of the antibodies or fusion proteins for BAFF, APRIL, and IL-12/23 p40 was assayed by the ELISA method (coating an antigen protein). The specific procedures were as follows:
(§2) A BAFF (Sino biological, 10056-HNCH), APRIL (R&D Systems, 5860-AP-010/CF), or IL-12/23 p40 (Sino biological, 10052-H08H) protein was diluted to 1 μg/mL with a PBS (BasalMedia, B320) buffer at pH 7.4, and added to a 96-well microplate (Corning, 3590) at 100 μL/well. The plate was incubated at 4° C. overnight. After the liquid was discarded, 300 μL of 5% skim milk (BD, 232100) diluted with PBS was added to each well for blocking, and the plate was incubated at 37° C. for 2 h. After the blocking was completed, the blocking solution was discarded, and the plate was washed 3 times with a PBST buffer (PBS at pH 7.4 containing 0.1% tween-20). 100 μL of test antibody or fusion protein solution diluted in a gradient was added to each well, and the plate was incubated at 37° C. for 1 h. After the incubation was completed, the plate was washed 3 times with PBST. […] The plate was washed 3 times with PBST. 100 μL of TMB chromogenic substrate (KPL, 5120-0077) was added to each well, and the plate was incubated at room temperature for 10-15 min. The reaction was stopped by adding 50 μL of 1 M H₂SO₄ to each well. The plate was read for absorbance values at 450 nm on a microplate reader, the binding curves of the antibodies to an antigen were fitted with software, and the EC₅₀ values were calculated.

For assay [2], the target named is T1, human BAFF (10056-HNCH, Sino biological). Briefly: competition ELISA: biotin-labeled BAFF to coated BAFF-R. The protocol: (§3) The blocking activity of the antibodies and the fusion proteins for receptors and ligands such as BAFF/BAFF-R, BAFF/BCMA, BAFF/TACI, APRIL/BCMA, APRIL/TACI, and p40/IL-12R1 was assayed by the ELISA method. The specific procedures were as follows:
(§4) A receptor protein was diluted to 2 μg/mL with PBS at pH 7.4 (BasalMedia, B320) and added to a 96-well microplate (Corning, 3590) at 100 μL/well. The plate was incubated at 4° C. overnight. After the liquid was discarded, 200 μL of 1% Casein blocking solution (Thermo, 37528) was added to each well for blocking, and the plate was incubated at 37° C. for 2 h. After the blocking was completed, the blocking solution was discarded, and the plate was washed 3 times with a PBST buffer (PBS at pH 7.4 containing 0.1% tween-20) for later use. A biotin-labeled ligand protein at a fixed concentration was mixed with the antibody or fusion protein diluted in gradient, pre-incubated at 37° C. for 30 min, and added to a blocked microplate. The plate was incubated at 37° C. for 1.5 h. After the incubation was completed, the plate was washed 3 times with PBST. 100 μL of streptavidin-HRP (Invitrogen, 434323, diluted at a ratio of 1:4000) was added to each well, and the plate was incubated at 37° C. for 1 h. The supernatant was removed, and the plate was washed 3 times with PBST. 100 μL of TMB chromogenic substrate (KPL, 5120-0077) was added to each well, and the plate was incubated at room temperature for 10-15 min. The reaction was stopped by adding 50 μL of 1 M H₂SO₄ to each well. The plate was read for absorbance values at 450 nm on a microplate reader, the curves for the inhibition of the binding of the ligands to the receptors were fitted with software, and the IC₅₀ values were calculated.
Background: An ELISA detects its analyte on a solid surface through an enzyme-linked reagent.

Assay [3] has the same target. The assay is described as above. The protocol:
as §3, §4
The source holds these as a separate data set.

The target is the same in assay [4]. Briefly: ELISA, BAFF coated, fusion protein titrated. The protocol: as §1, §2
This is another data set of the same source.

The target in assay [5] is T2, human APRIL (5860-AP-010/CF, R&D Systems) (human, UniProt O75888 115-250, limits assumed).
T2 construct: Bought protein
T2 sequence (looked up): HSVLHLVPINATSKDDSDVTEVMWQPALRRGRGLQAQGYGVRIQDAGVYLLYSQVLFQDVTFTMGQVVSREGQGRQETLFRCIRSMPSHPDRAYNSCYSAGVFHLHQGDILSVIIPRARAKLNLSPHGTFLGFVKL
Briefly: SPR (Biacore), sample captured on Protein A, antigen flowed, 1:1 fit. The protocol: A certain amount of test sample was subjected to affinity capture by a biosensor chip Protein A (GE, 29127556), then antigens at a series of concentration gradients were allowed to flow on the surface of the chip. The reaction signals were detected in real time by using Biacore (GE, 8K) to obtain association and dissociation curves. After the dissociation was completed for each cycle, the biochip was washed and regenerated with a 10 mM glycine-hydrochloric acid solution at pH 1.5 (GE, BR-1003-54). The experimental data were fitted using BIAevaluation version 4.1, GE software with a 1:1 model to obtain affinity values. The related antigen proteins used in this assay are as follows: human IL-23 (CT048-H08H, Sino biological), human IL-12 (CT050-H08H, Sino biological), human BAFF (10056-HNCH, Sino biological), human APRIL (5860-AP-010/CF, R&D Systems), cynomolgus monkey p40 (10215-CL, R&D Systems), cynomolgus monkey BAFF (BAF-CM412B, Kactus), cynomolgus monkey APRIL (APR-CM410B, Kactus), mouse BAFF (BAF-M521y, Acro Biosystems), and mouse APRIL (7907-AP/CF, R&D Systems).
For orientation: Surface plasmon resonance follows binding to a sensor surface in real time, without labels.

The target in assay [6] is T1, human BAFF (10056-HNCH, Sino biological). The assay is described as above.

Residue numbers refer to the chain shown, from its start. Numbers in names are those of the source. Like-named read-outs stand apart in the source and are kept apart here.

One may read the EC50 as the concentration at which the effect is half-maximal. The term IC50 denotes the concentration that gives 50% inhibition. Broadly, the Kd is the concentration at which binding is half-saturated. A lower Kd goes with a tighter complex. Broadly, the koff is the first-order rate constant of dissociation. For orientation: kon means the second-order rate constant of association. A low value points to slower complex formation.

B1: TACI-19Fc (Fc fusion)
chain: RKEQGKFYDHLLRDCISCASICGQHPKQCAYFCEDKTHTCPPCPAPEAEGAPSVFLFPPKPKDTLMISRTPEVTCVVVDVSHEDPEVKFNWYVDGVEVHNAKTKPREEQYNSTYRVVSVLTVLHQDWLNGKEYKCKVSNKALPSSIEKTISKAKGQPREPQVYTLPPSRDELTKNQVSLTCLVKGFYPSDIAVEWESNGQPENNYKTTPPVLDSDGSFFLYSKLTVDKSRWQQGNVFSCSVMHEALHNHYTQKSLSLSPGK
notes: Fused directly to Fc; two identical polypeptides
In assay [1], B1 yielded an EC50 of 4.99 nM. In assay [2], the IC50 was determined as 2220 nM.

B2: TACI-10 Fc (Fc fusion)
chain: SLSCRKEQGKFYDHLLRDCISCASICGQHPKQCAYFCENKDKTHTCPPCPAPEAEGAPSVFLFPPKPKDTLMISRTPEVTCVVVDVSHEDPEVKFNWYVDGVEVHNAKTKPREEQYNSTYRVVSVLTVLHQDWLNGKEYKCKVSNKALPSSIEKTISKAKGQPREPQVYTLPPSRDELTKNQVSLTCLVKGFYPSDIAVEWESNGQPENNYKTTPPVLDSDGSFFLYSKLTVDKSRWQQGNVFSCSVMHEALHNHYTQKSLSLSPGK
notes: TACI-9 truncated at the C-terminus by 1 amino acid L, fused directly to Fc; two identical polypeptides
B2 returned a concentration giving a half-maximal response (EC50) in assay [1] of 0.561 nM. The half-maximal inhibitory concentration (IC50) in assay [3] worked out at 2.7 nM.

B3: TACI-21Fc (Fc fusion)
chain: EQGKFYDHLLRDCISCASICGQHPKQCAYFCEDKTHTCPPCPAPEAEGAPSVFLFPPKPKDTLMISRTPEVTCVVVDVSHEDPEVKFNWYVDGVEVHNAKTKPREEQYNSTYRVVSVLTVLHQDWLNGKEYKCKVSNKALPSSIEKTISKAKGQPREPQVYTLPPSRDELTKNQVSLTCLVKGFYPSDIAVEWESNGQPENNYKTTPPVLDSDGSFFLYSKLTVDKSRWQQGNVFSCSVMHEALHNHYTQKSLSLSPGK
notes: as for B1
Molecule B3 displayed an EC50 in assay [1] of 9.8 nM. The concentration for half-maximal inhibition (IC50) in assay [2] turned out to be 2520 nM.

B4: TACI-9-10Fc (Fc fusion)
chain: SLSCREEQGEFYDHLLRDCISCASICGQHPKQCAYFCENKLDKTHTCPPCPAPEAEGAPSVFLFPPKPKDTLMISRTPEVTCVVVDVSHEDPEVKFNWYVDGVEVHNAKTKPREEQYNSTYRVVSVLTVLHQDWLNGKEYKCKVSNKALPSSIEKTISKAKGQPREPQVYTLPPSRDELTKNQVSLTCLVKGFYPSDIAVEWESNGQPENNYKTTPPVLDSDGSFFLYSKLTVDKSRWQQGNVFSCSVMHEALHNHYTQKSLSLSPGK
notes: TACI-9 with K6E and K10E, fused to Fc; two identical polypeptides
Consider B4, for which the EC50 in assay [4] came out at 0.12 nM. In assay [5], the Kd stood at 0.0128 nM, the off-rate (koff) worked out at 0.000112 s⁻¹ and the kon came to 8.75e+06 M⁻¹ s⁻¹. Moreover, in assay [6], the affinity, expressed as Kd, was 0.081 nM; the off-rate (koff) worked out at 1.89e-05 s⁻¹; the kon is 234000 M⁻¹ s⁻¹.

B5: TACI-9-15Fc (Fc fusion)
chain: B4 chain with L2T, Y35A
notes: two identical polypeptides
With B5, the 50% effective concentration (EC50) in assay [4] was 0.0869 nM. In assay [5], the Kd was determined as 0.0125 nM, the koff came out at 9.6e-05 s⁻¹ and the kon was 7.67e+06 M⁻¹ s⁻¹. In assay [6], this molecule registered a Kd of 0.0773 nM, a koff of 2.12e-05 s⁻¹ and a kon of 274000 M⁻¹ s⁻¹.

B6: TACI-9-14Fc (Fc fusion)
chain: B4 chain with L2T, E6K, E10K, Y35A, F36Y
notes: two identical polypeptides
In the case of B6, the EC50 in assay [4] worked out at 0.223 nM.

B7: TACI-18Fc (Fc fusion)
chain: CRKEQGKFYDHLLRDCISCASICGQHPKQCAYFCEDKTHTCPPCPAPEAEGAPSVFLFPPKPKDTLMISRTPEVTCVVVDVSHEDPEVKFNWYVDGVEVHNAKTKPREEQYNSTYRVVSVLTVLHQDWLNGKEYKCKVSNKALPSSIEKTISKAKGQPREPQVYTLPPSRDELTKNQVSLTCLVKGFYPSDIAVEWESNGQPENNYKTTPPVLDSDGSFFLYSKLTVDKSRWQQGNVFSCSVMHEALHNHYTQKSLSLSPGK
notes: as for B1
Regarding B7, in assay [1], the EC50 stood at 0.992 nM. In assay [2], the half-maximal inhibitory concentration (IC50) turned out to be 3.26 nM.

B8: TACI-17Fc (Fc fusion)
chain: SCRKEQGKFYDHLLRDCISCASICGQHPKQCAYFCEDKTHTCPPCPAPEAEGAPSVFLFPPKPKDTLMISRTPEVTCVVVDVSHEDPEVKFNWYVDGVEVHNAKTKPREEQYNSTYRVVSVLTVLHQDWLNGKEYKCKVSNKALPSSIEKTISKAKGQPREPQVYTLPPSRDELTKNQVSLTCLVKGFYPSDIAVEWESNGQPENNYKTTPPVLDSDGSFFLYSKLTVDKSRWQQGNVFSCSVMHEALHNHYTQKSLSLSPGK
notes: as for B1
In assay [1], B8 displayed a concentration for a half-maximal effect (EC50) of 0.996 nM. The IC50 in assay [2] came out at 2.82 nM.

B9: TACI-20Fc (Fc fusion)
chain: KEQGKFYDHLLRDCISCASICGQHPKQCAYFCEDKTHTCPPCPAPEAEGAPSVFLFPPKPKDTLMISRTPEVTCVVVDVSHEDPEVKFNWYVDGVEVHNAKTKPREEQYNSTYRVVSVLTVLHQDWLNGKEYKCKVSNKALPSSIEKTISKAKGQPREPQVYTLPPSRDELTKNQVSLTCLVKGFYPSDIAVEWESNGQPENNYKTTPPVLDSDGSFFLYSKLTVDKSRWQQGNVFSCSVMHEALHNHYTQKSLSLSPGK
notes: as for B1
Regarding B9, the half-maximal effective concentration (EC50) in assay [1] was 7.19 nM. In assay [2], the concentration for half-maximal inhibition (IC50) worked out at 2360 nM.

B10: TACI-16Fc (Fc fusion)
chain: LSCRKEQGKFYDHLLRDCISCASICGQHPKQCAYFCEDKTHTCPPCPAPEAEGAPSVFLFPPKPKDTLMISRTPEVTCVVVDVSHEDPEVKFNWYVDGVEVHNAKTKPREEQYNSTYRVVSVLTVLHQDWLNGKEYKCKVSNKALPSSIEKTISKAKGQPREPQVYTLPPSRDELTKNQVSLTCLVKGFYPSDIAVEWESNGQPENNYKTTPPVLDSDGSFFLYSKLTVDKSRWQQGNVFSCSVMHEALHNHYTQKSLSLSPGK
notes: as for B1
On to B10, for which the response in assay [1] was half-maximal at 0.599 nM (EC50). Further, the IC50 in assay [2] was determined as 2.22 nM.
